Measured values: PMC7060403 (Journal of molecular biology, 2019)

T1: RavP-N (N-terminal region of the rabies virus phosphoprotein, residues 1-152) (rabies virus, UniProt P22363 1-152)
T1 sequence: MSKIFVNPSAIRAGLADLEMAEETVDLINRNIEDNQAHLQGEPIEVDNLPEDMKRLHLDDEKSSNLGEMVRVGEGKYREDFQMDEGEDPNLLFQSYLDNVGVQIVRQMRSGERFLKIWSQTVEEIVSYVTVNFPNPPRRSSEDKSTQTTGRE

B1: full-length rabies virus phosphoprotein (RavP-FL, residues 1-297) (natural protein)
chain: MSKIFVNPSAIRAGLADLEMAEETVDLINRNIEDNQAHLQGEPIEVDNLPEDMKRLHLDDEKSSNLGEMVRVGEGKYREDFQMDEGEDPNLLFQSYLDNVGVQIVRQMRSGERFLKIWSQTVEEIVSYVTVNFPNPPRRSSEDKSTQTTGRELKKETTSAFSQRESQPSKARMVAQVAPGPPALEWSATNEEDDLSVEAEIAHQIAESFSKKYKFPSRSSGIFLYNFEQLKMNLDDIVKEAKNVPGVTRLAHDGSKIPLRCVLGWVALANSKKFQLLVEADKLSKIMQDDLNRYTSC

Experiments:
[1] = biological target: the molecule itself; assay: SEC-MALS
[2] = biological target: B1; assay: ITC
[3] = biological target: T1, RavP-N (N-terminal region of the rabies …); assay: ITC

Row | Binder | stoichiometry N [1] | Kd [2] [nM] | stoichiometry N [2] | Kd [3] [nM]
1 | B1 | 2 |  |  | 
2 | LC8 from Drosophila melanogaster (natural protein, UniProt Q24117 1-89, looked up) MSDRKAVIKNADMSEEMQQDAVDCATQALEKYNIEKDIAAYIKKEFDKKYNPTWHCIVGRNFGSYVTHETRHFIYFYLGQVAILLFKSG |  | 82 | 1 | 30
